# From publication PMC8225672
# Experiments:
# [1] = molecular target: Human GHSR (growth hormone secretagogue receptor, ghrelin receptor), purified and inserted into lipid nanodiscs (human) (UniProt Q92847); test: FRET or BRET; competition: time-resolved energy transfer between purified GHSR labeled with Lumi4-Tb at its N-terminus and dy647-labeled ghrelin (0.1 µM range), increasing competitor; GHSR in 12 nm nanodiscs (MSP1E3D1(-) scaffold); isolated receptor without G protein
# [2] = molecular target: Human GHSR (growth hormone secretagogue receptor, ghrelin receptor), purified and inserted into lipid nanodiscs (human) (UniProt Q92847); test: FRET or BRET; competition: time-resolved energy transfer between purified GHSR labeled with Lumi4-Tb at its N-terminus and dy647-labeled ghrelin (0.1 µM range), increasing competitor; GHSR in 17 nm nanodiscs (cNW30 scaffold); isolated receptor without G protein
# Sequence of UniProt Q92847 (Q92847 whole entry): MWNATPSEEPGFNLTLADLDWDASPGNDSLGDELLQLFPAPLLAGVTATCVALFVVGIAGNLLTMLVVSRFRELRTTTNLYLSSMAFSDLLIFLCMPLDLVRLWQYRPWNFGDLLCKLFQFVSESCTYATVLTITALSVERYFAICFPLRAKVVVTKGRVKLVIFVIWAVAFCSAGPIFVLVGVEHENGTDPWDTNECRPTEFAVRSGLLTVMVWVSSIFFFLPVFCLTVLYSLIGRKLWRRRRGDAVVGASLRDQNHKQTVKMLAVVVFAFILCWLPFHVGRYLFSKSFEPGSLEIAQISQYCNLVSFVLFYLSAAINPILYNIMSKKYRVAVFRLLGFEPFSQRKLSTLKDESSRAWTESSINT
substance,measurement,setting,value
"LEAP2(1-14), the active N-terminal region of the natural inverse agonist LEAP2 (peptide)",Ki,[1],6.7 nM
same,Ki,[2],4.6 nM
